These results are taken from US20240376185A1 (SMIVET B V, published 2024).

For orientation: Kd means the concentration at which binding is half-saturated. By koff is commonly meant the rate constant with which the complex falls apart. By kon is commonly meant the second-order rate constant of association. Read a high kon as fast association.

The target of assay [1] is dog IgG (chrompure dog IgG) (dog).
Assay [2] concerns the target T1, tetanus neurotoxin (TeNT), authentic tetanus holotoxin (Clostridium tetani, UniProt P04958 2-1315). As to the kind of experiment: bridging ELISA: coated dog IgG, SDA, biotinylated TeNT, StrepPO.
Target sequence in this assay (P04958 2-457 limits assumed, chain 1 of 2): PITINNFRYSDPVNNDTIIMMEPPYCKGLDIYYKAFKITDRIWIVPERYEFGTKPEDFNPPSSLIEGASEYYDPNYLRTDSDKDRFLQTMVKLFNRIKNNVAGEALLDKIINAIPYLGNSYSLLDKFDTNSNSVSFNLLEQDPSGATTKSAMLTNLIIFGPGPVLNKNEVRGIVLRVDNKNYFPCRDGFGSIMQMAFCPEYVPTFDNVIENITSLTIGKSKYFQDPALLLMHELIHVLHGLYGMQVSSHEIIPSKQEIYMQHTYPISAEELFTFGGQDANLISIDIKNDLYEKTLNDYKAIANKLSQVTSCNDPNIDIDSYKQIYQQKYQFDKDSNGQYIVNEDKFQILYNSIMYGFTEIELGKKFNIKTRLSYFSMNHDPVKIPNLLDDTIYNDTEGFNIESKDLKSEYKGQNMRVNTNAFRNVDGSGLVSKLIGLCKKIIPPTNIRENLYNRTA
Target sequence in this assay (P04958 458-1315 limits assumed, chain 2 of 2): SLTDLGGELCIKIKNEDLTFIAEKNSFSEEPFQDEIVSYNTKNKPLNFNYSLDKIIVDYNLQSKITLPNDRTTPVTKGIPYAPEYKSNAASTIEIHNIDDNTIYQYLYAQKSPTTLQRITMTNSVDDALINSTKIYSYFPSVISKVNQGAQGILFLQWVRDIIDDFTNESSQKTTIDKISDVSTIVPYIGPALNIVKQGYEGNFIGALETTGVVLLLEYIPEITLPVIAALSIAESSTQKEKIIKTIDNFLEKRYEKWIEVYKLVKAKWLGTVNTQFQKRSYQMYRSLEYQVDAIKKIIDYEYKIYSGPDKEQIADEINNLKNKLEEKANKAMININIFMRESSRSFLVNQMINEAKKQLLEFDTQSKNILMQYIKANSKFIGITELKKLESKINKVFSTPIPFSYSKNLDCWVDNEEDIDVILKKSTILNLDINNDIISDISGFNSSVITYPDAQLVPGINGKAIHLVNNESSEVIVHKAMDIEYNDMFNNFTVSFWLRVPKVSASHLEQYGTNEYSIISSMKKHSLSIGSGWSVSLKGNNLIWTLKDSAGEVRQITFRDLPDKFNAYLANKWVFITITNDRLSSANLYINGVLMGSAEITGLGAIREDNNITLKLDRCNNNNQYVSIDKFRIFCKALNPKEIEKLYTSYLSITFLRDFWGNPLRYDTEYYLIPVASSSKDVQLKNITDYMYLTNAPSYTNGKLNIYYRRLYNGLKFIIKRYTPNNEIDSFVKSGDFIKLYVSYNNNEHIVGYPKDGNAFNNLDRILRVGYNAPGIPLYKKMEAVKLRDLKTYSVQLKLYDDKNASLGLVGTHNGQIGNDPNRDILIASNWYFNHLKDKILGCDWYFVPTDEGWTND
Assay [3] has as its target T1, tetanus neurotoxin (TeNT), authentic …. In words: bridging ELISA: coated TeNT, SDA, biotinylated TeNT, StrepPO (bivalent binding).
Target sequence in this assay (P04958 2-457 limits assumed, chain 1 of 2): as the sequence (P04958 2-457 limits assumed, chain 1 of 2) above
Target sequence in this assay (P04958 458-1315 limits assumed, chain 2 of 2): as the sequence (P04958 458-1315 limits assumed, chain 2 of 2) above
The target is the same in assay [4]. As to the kind of experiment: BLI (Octet Red96): biotinylated TeNT on SA sensor, SDA as analyte. On the technique in general: In BLI a coated tip is dipped into the sample, and binding shifts an interference pattern.
Target sequence in this assay (P04958 2-457 limits assumed, chain 1 of 2): as the sequence (P04958 2-457 limits assumed, chain 1 of 2) above
Target sequence in this assay (P04958 458-1315 limits assumed, chain 2 of 2): as the sequence (P04958 458-1315 limits assumed, chain 2 of 2) above
Assay [5] has the same target. As to the kind of experiment: ELISA: directly coated TeNT, anti-his6 PO.
Target sequence in this assay (P04958 2-457 limits assumed, chain 1 of 2): as the sequence (P04958 2-457 limits assumed, chain 1 of 2) above
Target sequence in this assay (P04958 458-1315 limits assumed, chain 2 of 2): as the sequence (P04958 458-1315 limits assumed, chain 2 of 2) above
For assay [6] the target is unchanged. In words: bridging ELISA: coated TeNT, SDA, biotinylated TeNT, StrepPO (bivalent binding). This is another data set of the same source.
Target sequence in this assay (P04958 2-457 limits assumed, chain 1 of 2): as the sequence (P04958 2-457 limits assumed, chain 1 of 2) above
Target sequence in this assay (P04958 458-1315 limits assumed, chain 2 of 2): as the sequence (P04958 458-1315 limits assumed, chain 2 of 2) above
For assay [7] the target is unchanged. As to the kind of experiment: cell-based or functional assay.
Assay [8] shares this target. As to the kind of experiment: ELISA: directly coated TeNT, anti-his6 PO. The source holds these as a separate data set.
The target is the same in assay [9]. In words: GT1b-TeNT inhibition ELISA. Background: An ELISA detects its analyte on a solid surface through an enzyme-linked reagent.
Target sequence in this assay (P04958 2-457 limits assumed, chain 1 of 2): as the sequence (P04958 2-457 limits assumed, chain 1 of 2) above
Target sequence in this assay (P04958 458-1315 limits assumed, chain 2 of 2): as the sequence (P04958 458-1315 limits assumed, chain 2 of 2) above
Assay [10] shares this target. As to the kind of experiment: ELISA: directly coated TeNT, goat anti-llama Ig PO.
The target is the same in assay [11]. As to the kind of experiment: ELISA: directly coated TeNT, goat anti-llama Ig PO. This is another data set of the same source.
Assay [12] has the same target. In words: GT1b-TeNT inhibition ELISA. The source holds these as a separate data set.
Assay [13] has the same target. In words: bridging ELISA: coated dog IgG, SDA, biotinylated TeNT, StrepPO. This is another data set of the same source.
Assay [14] has as its target dog IgG (chrompure dog IgG) (dog). This is another data set of the same source.

B1: SVT02-GS2-SVG13M4-H6 (bispecific antibody)
chain: QVQLQQSGGGSVQAGGSLRLSCVGPQRTFSTYGMGWFRQAPGKEREFVAGINYKGDTTYYADSVKGRFTISRDNAKNTLYLQMDSLKPEDRAVYQCARKGGLGGDYRDAGQYRYWGQGTQVTVSSGGGGSGGGSEVQLVESGGGLVQPGGSLRLSCEASGFTFDDYGMSWVRQAPGKGLEWVSSLTPNGGSTYYADSVKGRFTISRDNAKNTLYLQMNSLKPEDTALYYCAKNSYYGAMDYWGQGTQVTVSSHHHHHH
B1: the maximal absorbance value in assay [1] turned out to be 0.18 A450; in [2] it was 1.32 A450; in assay [5], 0.06 A450; in assay [6], 0.19 A450; in assay [10], 0.09 A450. In addition, the figures for the “Effective SDA Concentration at A450 0.3” value in [3] and in assay [13] were more than 1000 ng/mL and 9.1 ng/mL, respectively. This molecule also yielded a Kd in assay [4] of 0.0987 nM. The molecule further had a koff in assay [4] of 0.000121 s⁻¹. Further, in assay [4], the on-rate constant (kon) stood at 1.23e+06 M⁻¹ s⁻¹. In assay [7], this molecule gave an Endpoint dilution factor of less than 1. Also, the “SDA concentration providing full protection” value in [7] was more than 1000 nM. Further, the “Effective SDA Concentration at A450 0.15” value in assay [8] and in assay [11] was more than 1000 ng/mL each time. Moreover, the “Effective SDA Concentration at A450 0.56” value in [9] was more than 1000 ng/mL. Further, the “minimal absorbance value (GT1b-TeNT inhibition)” value in [12] was 0.77 A450.

B2: SVT06-GS2-SVG13M4-H6 (bispecific antibody)
chain: QVQLQESGGGSVQAGGSLRLSCTASELSYDDYTIAWFRRAAGEGRVEDGEGVASITKSYDRAYDNKINYGHSVKGRFTISRDNAKNTVYLQMTDLLPSDTAVYYCALDITPPGGVGASLTEGFLFDYWGQGTQVTVSSGGGGSGGGSEVQLVESGGGLVQPGGSLRLSCEASGFTFDDYGMSWVRQAPGKGLEWVSSLTPNGGSTYYADSVKGRFTISRDNAKNTLYLQMNSLKPEDTALYYCAKNSYYGAMDYWGQGTQVTVSSHHHHHH
On to B2, for which the maximal absorbance value in [1] came out at 1.18 A450; in assay [2], 1.61 A450; in assay [5] it was 1.44 A450; in [6], 0.98 A450; in [10], 1.2 A450. In addition, the figures for the “Effective SDA Concentration at A450 0.3” value in [3] and in [13] were 9.6 ng/mL and less than 0.49 ng/mL, respectively. In assay [4], this molecule gave a Kd of 0.123 nM. Further, the koff in assay [4] is 8.24e-05 s⁻¹. In [4], the kon amounted to 670000 M⁻¹ s⁻¹. This molecule displayed an Endpoint dilution factor in assay [7] of 2.4. Also, the “Potency IU/mg” value in assay [7] is 1.04 IU/mg. Besides, the “SDA concentration providing full protection” value in [7] came out at 1000 nM. Moreover, the “Effective SDA Concentration at A450 0.15” value in assay [8] was 3.4 ng/mL; in assay [11], 2 ng/mL. Moreover, the “Effective SDA Concentration at A450 0.2” value in assay [14] is 46 ng/mL. The “Effective SDA Concentration at A450 0.56” value in assay [9] was found to be 93 ng/mL. The “minimal absorbance value (GT1b-TeNT inhibition)” value in [12] came to 0.22 A450.

B3: SVT15-3FW4M-GS2-SVG06M4-H6 (bispecific antibody)
chain: QVQLQESGGGLVQTGGSLRLSCRASGRAFANYHFGWFRQAPGKDREFVASISWKGGSTYYANFALGRFTSSVDRAESSVYLQMSGLTPEDTATYYCAAHDGGDWNYHTGMDYWGQGTQVTVSSGGGGSGGGSEVQLVESGGALVQPGGSLRLSCAASGFPFSAYDMTWVRQAPGQGLEWVSTIHKSGGITTYADSVKGRFTISRDNAKNTLYLQMNNLESEDTAVYYCAKALRAHNSDYVGRNALGSWGQGTQVTVSSHHHHHH
For the molecule B3, the maximal absorbance value in assay [1] is 0.07 A450; in [2], 1.3 A450; in [5], 0.37 A450; in assay [6], 0.29 A450; in assay [10], 1.23 A450. The results for the “Effective SDA Concentration at A450 0.3” value in assay [3] and in assay [13] were more than 1000 ng/mL and 8.3 ng/mL, respectively. In addition, the “Effective SDA Concentration at A450 0.15” value in assay [8] worked out at 37 ng/mL; in assay [11], 4.3 ng/mL. Also, the “Effective SDA Concentration at A450 0.56” value in assay [9] came to 131 ng/mL. In addition, the “minimal absorbance value (GT1b-TeNT inhibition)” value in assay [12] is 0.12 A450.
